The values that follow come from patent publication US20090035818A1.

Experiment [1] concerns the target chicken egg yolk antibody (chicken IgY antibody) (chicken). Put plainly: SPR (Biacore 2000), chicken IgY on CM5 chip, lectin as analyte.
In experiment [2] the target is asialotransferrin (human) (UniProt P02787). The experiment can be described thus: SPR, asialotransferrin on CM5 chip, lectin as analyte.
Sequence of asialotransferrin (human) (P02787 20-698 limits assumed): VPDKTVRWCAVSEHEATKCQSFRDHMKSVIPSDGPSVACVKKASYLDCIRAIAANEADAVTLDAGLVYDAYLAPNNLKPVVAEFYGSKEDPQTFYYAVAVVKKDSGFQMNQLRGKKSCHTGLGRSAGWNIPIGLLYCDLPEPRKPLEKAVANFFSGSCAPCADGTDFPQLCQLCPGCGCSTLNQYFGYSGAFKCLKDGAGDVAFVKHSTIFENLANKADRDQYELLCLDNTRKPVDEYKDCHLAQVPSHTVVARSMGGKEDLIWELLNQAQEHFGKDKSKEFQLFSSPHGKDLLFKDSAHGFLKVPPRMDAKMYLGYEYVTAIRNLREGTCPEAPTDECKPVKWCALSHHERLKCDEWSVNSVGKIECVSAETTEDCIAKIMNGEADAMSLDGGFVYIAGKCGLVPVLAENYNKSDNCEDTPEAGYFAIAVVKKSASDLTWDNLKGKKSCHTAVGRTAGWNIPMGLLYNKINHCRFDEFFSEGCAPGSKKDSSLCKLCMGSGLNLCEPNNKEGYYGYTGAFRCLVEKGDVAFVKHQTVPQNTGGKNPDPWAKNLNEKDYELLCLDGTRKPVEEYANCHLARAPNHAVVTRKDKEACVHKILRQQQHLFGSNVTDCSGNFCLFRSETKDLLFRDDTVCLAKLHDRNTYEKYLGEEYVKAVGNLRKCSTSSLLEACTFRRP

Take “Solieria robusta-derived lectin Solnin B”: in experiment [1], the Ka worked out at 2.88e+07 M⁻¹, the Kd turned out to be 0.0347 µM, the koff was found to be 0.00564 s⁻¹ and the kon was determined as 162000 M⁻¹ s⁻¹.

For “Carpopeltis flabellata-derived lectin Carnin”, in experiment [1], the Ka turned out to be 6.57e+07 M⁻¹, the Kd came to 0.0152 µM, the koff is 0.00172 s⁻¹ and the kon came to 113000 M⁻¹ s⁻¹. The Ka in experiment [2] was 1e+08 M⁻¹.

As to “Canavallia ensiformis-derived lectin Con A (from UniProt P02866 30-281)”, in experiment [1], the Ka worked out at 1.87e+07 M⁻¹, the Kd stood at 0.0534 µM, the koff was determined as 2.49e-05 s⁻¹ and the kon came out at 467 M⁻¹ s⁻¹.

As to “Hypnea japonica-derived lectin Hypnin A-1”, in experiment [1], the Ka came out at 7.1e+07 M⁻¹, the Kd was 0.0141 µM, the koff stood at 0.000298 s⁻¹ and the on-rate constant (kon) stood at 21200 M⁻¹ s⁻¹.
